Each block holds one binder with its values, some of them ahead of it. bromoacetamide scaffold with biotin = not defined here
What was measured:
Experiment in all cases: immunoprecipitation with HCDR3 construct, number of peptides identified by mass spectrometry
[1] = biological target: 78 kDa glucose-regulated protein (mouse) (UniProt P20029)
[2] = biological target: Heat shock cognate 71 kDa protein (mouse) (UniProt P63017)
[3] = biological target: T1, Succinate--CoA ligase [ADP-forming] subunit beta, mitochondrial (mouse) (UniProt Q9Z2I9)
T1 sequence (looked up): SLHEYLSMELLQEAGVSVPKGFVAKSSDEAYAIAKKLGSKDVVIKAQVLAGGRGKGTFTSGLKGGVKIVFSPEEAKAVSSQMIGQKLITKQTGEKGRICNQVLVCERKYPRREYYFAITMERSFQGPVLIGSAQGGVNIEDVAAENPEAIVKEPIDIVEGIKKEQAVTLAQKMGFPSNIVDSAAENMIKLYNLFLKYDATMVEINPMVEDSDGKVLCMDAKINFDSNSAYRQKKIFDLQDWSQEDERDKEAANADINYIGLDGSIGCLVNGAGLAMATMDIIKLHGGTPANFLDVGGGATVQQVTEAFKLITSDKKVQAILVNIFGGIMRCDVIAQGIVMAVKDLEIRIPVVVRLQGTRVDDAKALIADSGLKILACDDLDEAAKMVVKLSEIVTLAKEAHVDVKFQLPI

[4] = biological target: T2, citrate synthase, mitochondrial (mouse) (UniProt Q9CZU6)
T2 sequence (looked up): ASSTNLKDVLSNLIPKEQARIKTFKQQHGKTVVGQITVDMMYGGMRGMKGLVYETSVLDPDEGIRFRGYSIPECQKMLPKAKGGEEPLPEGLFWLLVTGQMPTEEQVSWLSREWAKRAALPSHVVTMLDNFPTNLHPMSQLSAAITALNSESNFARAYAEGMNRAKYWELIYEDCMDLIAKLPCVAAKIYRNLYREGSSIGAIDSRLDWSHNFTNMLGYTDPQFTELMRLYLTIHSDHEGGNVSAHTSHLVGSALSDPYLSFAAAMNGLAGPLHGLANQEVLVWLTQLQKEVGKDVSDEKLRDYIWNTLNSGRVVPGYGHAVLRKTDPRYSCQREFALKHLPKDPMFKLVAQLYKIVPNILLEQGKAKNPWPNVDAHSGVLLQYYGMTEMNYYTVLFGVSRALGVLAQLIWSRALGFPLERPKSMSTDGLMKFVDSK

Chain of 78 kDa glucose-regulated protein (mouse) (P20029 20-655 limits assumed): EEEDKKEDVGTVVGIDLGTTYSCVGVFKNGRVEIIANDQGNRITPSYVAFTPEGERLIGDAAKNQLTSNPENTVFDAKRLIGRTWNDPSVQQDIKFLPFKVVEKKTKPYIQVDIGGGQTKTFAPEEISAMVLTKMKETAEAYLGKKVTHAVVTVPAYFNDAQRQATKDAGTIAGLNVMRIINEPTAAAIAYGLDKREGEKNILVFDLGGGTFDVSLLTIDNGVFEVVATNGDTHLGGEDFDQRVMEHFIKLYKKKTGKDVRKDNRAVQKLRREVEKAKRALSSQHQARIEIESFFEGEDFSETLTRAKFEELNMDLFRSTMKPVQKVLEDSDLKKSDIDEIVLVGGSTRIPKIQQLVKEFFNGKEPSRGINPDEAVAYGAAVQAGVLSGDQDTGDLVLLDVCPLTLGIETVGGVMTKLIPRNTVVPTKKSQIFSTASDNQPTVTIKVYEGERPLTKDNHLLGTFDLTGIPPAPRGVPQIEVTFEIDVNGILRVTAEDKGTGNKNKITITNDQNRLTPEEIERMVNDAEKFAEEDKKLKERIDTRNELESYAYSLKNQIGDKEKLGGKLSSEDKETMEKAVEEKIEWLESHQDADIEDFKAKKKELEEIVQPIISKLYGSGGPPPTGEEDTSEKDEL
Chain of Heat shock cognate 71 kDa protein (mouse) (P63017 2-646 limits assumed): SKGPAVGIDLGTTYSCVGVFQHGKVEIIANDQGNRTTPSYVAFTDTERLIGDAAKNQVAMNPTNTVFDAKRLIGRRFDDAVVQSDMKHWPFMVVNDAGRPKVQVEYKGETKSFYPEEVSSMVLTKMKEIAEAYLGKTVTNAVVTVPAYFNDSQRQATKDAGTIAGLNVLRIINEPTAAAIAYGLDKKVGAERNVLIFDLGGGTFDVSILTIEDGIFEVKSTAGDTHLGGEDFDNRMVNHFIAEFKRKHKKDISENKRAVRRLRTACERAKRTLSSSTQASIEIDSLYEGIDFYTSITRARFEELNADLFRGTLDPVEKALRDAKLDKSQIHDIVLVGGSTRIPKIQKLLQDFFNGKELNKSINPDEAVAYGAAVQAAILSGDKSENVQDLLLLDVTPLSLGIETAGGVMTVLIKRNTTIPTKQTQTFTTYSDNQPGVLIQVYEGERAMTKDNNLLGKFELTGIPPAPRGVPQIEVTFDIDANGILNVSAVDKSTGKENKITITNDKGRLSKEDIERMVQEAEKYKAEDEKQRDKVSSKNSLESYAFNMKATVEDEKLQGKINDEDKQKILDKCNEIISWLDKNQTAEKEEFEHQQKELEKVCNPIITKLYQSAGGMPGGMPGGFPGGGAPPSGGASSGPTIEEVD

- # Peptides [1]: 6 peptides
- # Peptides [2]: 6 peptides
B1: subacute-1 construct (SA1), biotinylated cyclic HCDR3 construct (peptide, part only; not given: biotin scaffold, part only)
peptide: Ac-TDLAVAHPVRY-NH2
modifications: linker (positions not given here) via bromoacetamide scaffold with biotin; reading uncertain; also: biotinylated bromoacetamide scaffold cyclization, attachment sites not given here

- # Peptides [3]: 4 peptides
- # Peptides [4]: 3 peptides
B2: Acute-2 construct (A2), biotinylated cyclic HCDR3 construct (peptide, part only; not given: biotin scaffold, part only)
peptide: Ac-SLYGSSRHTAPISF-NH2
modifications: linker (positions not given here) via bromoacetamide scaffold with biotin; reading uncertain; also: biotinylated bromoacetamide scaffold cyclization, attachment sites not given here

Reference: patent US20220268788A1
